Test results from the supplement of paper PMC11246515.
± gives the standard deviation of the averaged measurements.

Assay: total protein half-life in vivo (active degradation + dilution); higher = more stable protein
[1] = E. coli NCM3722 delta-clpP delta-lon delta-hslV, growth: N-lim chemostat, doubling time 6 h
[2] = E. coli NCM3722 delta-clpP, growth: N-lim chemostat, doubling time 6 h
[3] = E. coli NCM3722 delta-hslV, growth: N-lim chemostat, doubling time 6 h
[4] = E. coli NCM3722 delta-lon, growth: N-lim chemostat, doubling time 6 h
[5] = E. coli NCM3722 delta-smpB, growth: N-lim chemostat, doubling time 6 h
[6] = wild type E. coli NCM3722, growth: C-lim chemostat, doubling time 3 h
[7] = wild type E. coli NCM3722, growth: C-lim chemostat, doubling time 6 h
[8] = wild type E. coli NCM3722, growth: C-lim chemostat, doubling time 12 h
[9] = wild type E. coli NCM3722, growth: N-lim chemostat, doubling time 6 h
[10] = wild type E. coli NCM3722, growth: P-lim chemostat, doubling time 6 h
[11] = wild type E. coli NCM3722, growth: P-lim chemostat, doubling time 12 h
[12] = wild type E. coli NCM3722, growth: N-lim chemostat, doubling time 12 h

Row | Sequence | total protein half-life in vivo [1] | total protein half-life in vivo [2] | total protein half-life in vivo [3] | total protein half-life in vivo [4] | total protein half-life in vivo [5] | total protein half-life in vivo [6] | total protein half-life in vivo [7] | total protein half-life in vivo [8] | total protein half-life in vivo [9] | total protein half-life in vivo [10] | total protein half-life in vivo [11] | total protein half-life in vivo [12]
1 | MSALFLAIPLTIFVLFVLPIWLWLHYSNRSGRSELSQSEQQRLAQLADEAKRMRERIQALESILDAEHPNWRDR [P0AFM9] | 6.51 ± 0.1 h | 6.06 h | 6.22 ± 0.43 h | 5.01 ± 1.7 h | 6.04 ± 0.43 h | 2.84 ± 0.24 h | 5.55 ± 1.4 h | 13.4 ± 2.2 h | 6.02 ± 0.28 h | 4.5 ± 1.6 h | 12.1 ± 0.9 h | 
2 | MSALNKKSFLTYLKEGGIYVVLLVLLAIIIFQDPTFLSLLNLSNILTQSSVRIIIALGVAGLIVTQGTDLSAGRQVGLAAVVAATLLQSMDNANKVFPEMATMPIALVILIVCAIGAVIGLINGLIIAYLNVTPFITTLGTMIIVYGINSLYYDFVGASPISGFDSGFSTFAQGFVALGSFRLSYITFYALIAVAFVWVLWNKTRFGKNIFAIGGNPEAAKVSGVNVGLNLLMIYALSGVFYAFGGMLEAGRIGSATNNLGFMYELDAIAACVVGGVSFSGGVGTVIGVVTGVIIFTVINYGLTYIGVNPYWQYIIKGAIIIFAVALDSLKYARKK | 3.21 h | 6.19 h | 6.83 ± 0.54 h | 6.18 h | 6.18 ± 0.67 h | 3.05 ± 0.18 h |  | 12 ± 0.2 h |  | 5.49 ± 1.3 h |  | 
3 | MSALNSLPLPVVRLLAFFHEELSERRPGRVPQTVQLWVGCLLVILISMTFEIPFVALSLAVLFYGIQSNAFYTKFVAILFVVATVLEIGSLFLIYKWSYGEPLIRLIIAGPILMGCMFLMRTHRLGLVFFAVAIVAIYGQTFPAMLDYPEVVVRLTLWCIVVGLYPTLLMTLIGVLWFPSRAISQMHQALNDRLDDAISHLTDSLAPLPETRIEREALALQKLNVFCLADDANWRTQNAWWQSCVATVTYIYSTLNRYDPTSFADSQAIIEFRQKLASEINKLQHAVAEGQCWQSDWRISESEAMAARECNLENICQTLLQLGQMDPNTPPTPAAKPPSMAADAFTNPDYMRYAVKTLLACLICYTFYSGVDWEGIHTCMLTCVIVANPNVGSSYQKMVLRFGGAFCGAILALLFTLLVMPWLDNIVELLFVLAPIFLLGAWIATSSERSSYIGTQMVVTFALATLENVFGPVYDLVEIRDRALGIIIGTVVSAVIYTFVWPESEARTLPQKLAGTLGMLSKVMRIPRQQEVTALRTYLQIRIGLHAAFNACEEMCQRVALERQLDSEERALLIERSQTVIRQGRDLLHAWDATWNSAQALDNALQPDRAGQFADALEKYAAGLATALSRSPQITLEETPASQAILPTLLKQEQHVCQLFARLPDWTAPALTPATEQAQGATQ | 5.28 h | > 8 h |  |  |  | 0.524 h |  |  |  |  |  | 
4 | MSANENNLIWIDLEMTGLDPERDRIIEIATLVTDANLNILAEGPTIAVHQSDEQLALMDDWNVRTHTASGLVERVKASTMGDREAELATLEFLKQWVPAGKSPICGNSIGQDRRFLFKYMPELEAYFHYRYLDVSTLKELARRWKPEILDGFTKQGTHQAMDDIRESVAELAYYREHFIKL [P0A784] |  | 4.86 ± 0.7 h | 4.688 ± 0.041 h | 6.132 ± 0.0019 h | 4.64 ± 0.34 h | 3.41 ± 0.36 h |  | 13 ± 1.9 h | 4.65 ± 0.63 h | 5.87 ± 0.32 h | 13.6 ± 0.93 h | 8.25 ± 0.81 h
5 | MSASALVCLAPGSEETEAVTTIDLLVRGGIKVTTASVASDGNLAITCSRGVKLLADAPLVEVADGEYDVIVLPGGIKGAECFRDSTLLVETVKQFHRSGRIVAAICAAPATVLVPHDIFPIGNMTGFPTLKDKIPAEQWLDKRVVWDARVKLLTSQGPGTAIDFGLKIIDLLVGREKAHEVASQLVMAAGIYNYYE | 5.064 ± 0.047 h |  | 5.39 ± 1.1 h | 4.534 ± 0.022 h | 4.23 ± 0.24 h | 2.69 ± 0.31 h | 5.15 ± 0.32 h | 9.53 ± 0.47 h | 4.21 ± 0.22 h | 5.81 ± 0.065 h |  | 7.09 ± 0.18 h
6 | MSAVLTAEQALKLVGEMFVYHMPFNRALGMELERYEKEFAQLAFKNQPMMVGNWAQSILHGGVIASALDVAAGLVCVGSTLTRHETISEDELRQRLSRMGTIDLRVDYLRPGRGERFTATSSLLRAGNKVAVARVELHNEEQLYIASATATYMVG [P0ADP2] | 5.02 ± 0.33 h | 2.3 ± 0.16 h | 2.36 ± 0.08 h | 3.45 ± 0.78 h | 2.22 ± 0.052 h | 2.82 ± 0.14 h | 5.73 ± 0.62 h | 7.1 ± 2.8 h | 2.54 ± 0.22 h | 5 ± 0.1 h | 12.5 ± 1 h | 4.13 ± 0.42 h
7 | MSDDVALPLEFTDAAANKVKSLIADEDNPNLKLRVYITGGGCSGFQYGFTFDDQVNEGDMTIEKQGVGLVVDPMSLQYLVGGSVDYTEGLEGSRFIVTNPNAKSTCGCGSSFSI [P0ACC3] | 5.22 ± 1.4 h |  | 2.03 ± 0.4 h | 3.62 ± 0.25 h | 1.74 ± 0.059 h | 1.62 ± 0.23 h | 2.89 ± 0.6 h | 3.62 ± 0.69 h | 1.71 ± 0.19 h | 2.4 ± 0.14 h | 4.84 ± 0.42 h | 2.43 ± 0.26 h
8 | MSDISKASLPKAIFLMGPTASGKTALAIELRKILPVELISVDSALIYKGMDIGTAKPNAEELLAAPHRLLDIRDPSQAYSAADFRRDALAEMADITAAGRIPLLVGGTMLYFKALLEGLSPLPSADPEVRARIEQQAAEQGWESLHRQLQEVDPVAAARIHPNDPQRLSRALEVFFISGKTLTELTQTSGDALPYQVHQFAIAPASRELLHQRIEQRFHQMLASGFEAEVRALFARGDLHTDLPSIRCVGYRQMWSYLEGEISYDEMVYRGVCATRQLAKRQITWLRGWEGVHWLDSEKPEQARDEVLQVVGAIAG |  | 4.338 ± 0.019 h | 5.26 ± 1.1 h | 5.42 ± 0.37 h | 4.279 ± 0.03 h | 3.18 ± 0.12 h | 5.47 ± 0.15 h | 8.97 ± 0.41 h | 4.32 ± 0.4 h | 5.67 ± 0.43 h | 11.71 ± 0.1 h | 6.84 ± 1.1 h
9 | MSDKFGEGRDPYLYPGLDIMRNRLNIRQQQRLEQAAYEMTALRAATIELGPLVRGLPHLRTIHRQLYQDIFDWAGQLREVDIYQGDTPFCHFAYIEKEGNALMQDLEEEGYLVGLEKAKFVERLAHYYCEINVLHPFRVGSGLAQRIFFEQLAIHAGYQLSWQGIEKEAWNQANQSGAMGDLTALQMIFSKVVSEAGESE | 4.96 ± 0.27 h | 4.09 ± 0.47 h | 4.81 ± 0.64 h | 4.4 ± 0.57 h | 4.69 ± 0.42 h |  | 6.07 ± 0.18 h | 10.2 ± 1.9 h | 4.39 ± 0.17 h | 6.02 ± 0.4 h | 7.72 ± 3.9 h | 7.12 ± 0.43 h
10 | MSDLLCSAKLGAMTLALLLSATSLSALASVTPDRTRLIFNESDKSISVTLRNNDPKLPYLAQSWIEDEKGNKITSPLTVLPPVQRIDSMMNGQVKVQGMPDINKLPADRESMFYFNVREIPPKSNKPNTLQIALQTRIKLFWRPKALEKVSMKSPWQHKVTLTRSGQAFTVNNPTPYYVIISNASAQKNGNPAAGFSPLVIEPKTTVPLNVKMDSVPVLTYVNDFGARMPLFFQCNGNSCQVDEEQSRKG |  |  |  |  |  |  |  |  |  | 4.16 h |  | 
